Laboratory results published in the nanobody polyreactivity screen of Harvey et al. (2022).

Experiment: yeast display, Sf9 membrane polyspecificity reagent, FACS + sequencing; frameworks hold sequencing errors
How it was run: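 Nanobodies came from a synthetic yeast display library in Saccharomyces cerevisiae BJ5465, induced with galactose for 36–48 hours and stained for 1 hour at 4 °C with 10% biotinylated, detergent-solubilized Sf9 membrane reagent. Cells were enriched on streptavidin microbeads and then FACS-sorted, with low and high (top ~1%) gates set on anti-HA fluorescence for expression and streptavidin fluorescence for reagent binding. Each polyreactivity label reflects the gate a clone came from. Genes were amplified by colony PCR, sequenced by MiSeq 2 × 250 and filtered by CDR length.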

Sequence	polyreactivity (PSR sort gate)
QVQLVESGGGLVQAGGSLRLSCAASGSTITYYTMGWYRQAPGKERELVAAISGSGGRTYYADSVKGRFTISRDNAKNTVYLQMNSLKPEDTAVYYCAAVYQLSRYDYWGQGTQVTVSS	high polyreactivity
QVQLVESGGGLVQAGGSLRLSCAASGITSSTYAMGWYRQAPGKERELVAAISLSGSSTNYADSVKGRFTISRDNAKNTVYLQMNSLKPEDTAVYYCAATNYRTYPYGYWGQGTQVTVSS	high polyreactivity
QVQLVESGGGLVQAGGSLRLSFAASGINFEHNSMGWYRQAPGKERELVAVISKYGGRTYYADSVKGRFTISRDNAKNTVYLQMNSLKPEDTAVYYCAKRSPFITWNGISYEEYDYWGQGTQVTVSS	low polyreactivity
QVQLEESVGGLVQAGGSLRLSCAASGSIFSPNAMGSYRQAPGKERELVAAISSNGDSTYYADSVKGRFTISRDNAMNTVYLQMNSLKPEDTAVYYCAAVSIGPGEYDYWGQGTQVTVSS	low polyreactivity
QVQLVESGGGLVQAGGSLRLSCAASGSIFFTYVMGWYRQAPGKERELVAAISSDDNTNYADSVKGRFTISRDNAKNTVYLQMNSLKPEDTAVYYCNADTTLYPYYDYGYYDYDYWGQGTQVTVSS	low polyreactivity
QVQLVESGGGLVQAGGSLRLSCAASGSIGVNAMGWYRQAPGKERELVATISNSGGSTYYADSVKGRFTISRDNAKNTVYLQINSLKPEDTAVYYCAVAVTSYSSKKLYYWGQGTQVTVSS	low polyreactivity
QVQRVESGGGLVQAGGSLLLSCAASGSILYSYPMGWYRQAPGKERELVAAITGDGASTNYADSVKGRFTISRDNAKNTDYLQMNSLKPEDTAVYYCNAGRESDDVYEGSKRIGQFDYWGQGTLVTVSS	low polyreactivity
QVQLVESGGGLVQAGGSLRLSCAASGSIFYPYAMGWYRQAPGKERELVAGISRSGASTYYADSVKGRFTISRDNAKNTVYLQMNSLKPEDTAVYYCAADDWTRNYWGQGTEVTVSS	low polyreactivity
QVQLVESGGGLVQAGGSLRLSCAASGTIFDYNAMGWYRQAPGKERELVAAISWRGGTTYYADSVKGRFTISRDNAKNTVYLQMNSLKPEDTAVYYCAAGRRGVYHGGYWGQGTQVTVSS	high polyreactivity
HDQLVETGGGLVQAGGSLRLSCAASGFTFRAYAMGWYRQAPGKEREFVAAISRRGGSTSYADSVKGRFTISRDNAKNTVYLQMNSLKPEDTAVYYCAATYQILTTSAHDSWGQGTQVTVSS	high polyreactivity
QVQLVESGGGLVHAGGSLRLSCAASGSIFGIYTMGWYRQAPGKERELVARINLSGGITYYADSVKGRFKISRDNAKNTVYLQMNSLKPEDTAVYYCNARTVNFPYDYWGQGTQVTVSS	low polyreactivity
QVQLVESGGGLVQAGGSLRLSCAASGYTFYIYAMGWYIQAPGKERELVAAISWTDGSTYYADSVKGRFTISRDNAMNSVYLQMNSLKPEHTAVYYCAKTSLYAGAKEYDYWGQGTQVTVSS	low polyreactivity
QVQLVASGGGLVQAGGSLRLSCAATGNTLGYYDMGWYRQAPGKERELVAGITFRGGRTYYADSVKGRFTISRDNPKNTVYLQMKSLKPEDTAVYYCAKRTRYSPGHDYWGLGTQVTVSS	high polyreactivity
QVQLVESGGGLVQAGGSLRLSCAASGRTLNVYAMGWYRQAPGKDREFVAAITVSGGNTYADSVKGRFTISRDNAKNTVYLQMNSLKPEDTAVYYCAVDRFSYSRRYDYWGQGTQVTVSS	high polyreactivity
QVQLVESGGGLVQAGGSLRLSCAASGFTVYKYVKGWYRQAPGKERELVAAITTSGGSTYYADSVKGRFTISRDNPKNTVYLQMNSLKPEDTAVYYCNARSLHTSEGDYWGQGTQVTVSS	low polyreactivity
QVQLVESGGGVVQAGGSLRLSCAASGSTFGYYAMGWYRQAPGKERELVAAISQGAGRTYFADSVKGRFTISRDIAKNTVYLQMNSLKPEDTAVYYCAGSVTVHRWAYGYCGQGTQVTVSS	high polyreactivity
QVQLVESGGGLVQAGGSLRLSCAASGRTFFPYGMGWYRQAPGKERELVASISYSGGITYYADSVKGRFTISRDNAKNTVYLQMNSLKPEDTAVYYCSVRTIWRFRYDYWGQGTQVTVSS	high polyreactivity
QVQLVESGGGLVQAGGSLRLSCAASGSTFVPNAMGWYRQAPGKERELVAAISSVGSTNYADSVKGRFTISRDNAKNTVYLQLNSLKPEDTAVYYCAVRYPWRYFKYGYWGQGTQVTVSS	low polyreactivity
QVQLVESGGGLVQAGGSLRLSCAASGSTFYVYAMGWYRQAPGKERELVAAIDRGSSTYADSVKGRFTISRDNAKNTVYLQMNSLKPEDTAVYYCAAEKERDEEYDYWGQGTQVTVSS	low polyreactivity
QVQLVESGGGLVQAGGSLRLSCAASGRIFDTNVMGWYRQAPGTEREFVAAIRWNGGSTNYADSVKGRFTISRDNAKNTVYLQMNSLKPEDTAVYYCAADGSIGWRHIYEYWGQATQVTVSS	low polyreactivity
QVQHVESVGGLVQAGGSLRLSCAASGLIFLYNAMGWYRQAPGKVRELVAAITSSGGSTYYADSVKGRLTISRDYAKNTVYLQMNSLKPEDTAVYYCANRYQSYYYSHWGYRYYWGQGTQVTVSS	high polyreactivity
QVQLVESGGGLVQAGASLRLSCAASGSISKSYAMGWYRQAPGKERELVAAMSWRGGSTYADSVKGRFTISRDNAKNTVYLLMNCLKPEDSAVYYCAATNYGTFWGGQSERYDYWGQGTQVTVSS	low polyreactivity

Sequence	polyreactivity (PSR sort gate)
QVQLVESGGGLVQAGGSLRLTCAASGLIFGVYAMGWYRQAPGKEMELVAGISWRGSSTYYADSVKGRFTISRDYAKNTVYLQMNSLIPEDTAVYYCADVRRPSRHAYGGTAVYYWGQGTQVTVSS	high polyreactivity
QVQLVESGGGLVQAGGSHRLSCAASGRTFSPNAMGWYRQAPGKERELVAAISYRSYRTYYADSVKGRFTISRDKAKNTVYLQMNSLKPEDTAVYYCNADRTRGFQRYDYWGQGTQVTVSS	high polyreactivity
QVQLVESGGGLVQAGGSLRLSCAASGSIFVYYVMGWYRQAPGKERELVAAISSGGRTYYADSVKGRFTISRDNAKNTVYLQMNSLKPEDTAVYYCAAVWYWTQDYDYWGQGTQVTVSS	low polyreactivity
QVQLVESGGGLVQAGGSLRLSCAASGFTFSDNAMVWYRQAPGKERELVAAISEGSGITYYADSVKGRFTISRDNAKNTVTLQMNSLKPEDNAVYYCAADWLSKYDYWGQGTQVTVSS	low polyreactivity
QVQLVESGGGLVQAGGSLRISCAASGITFSENDMGWYRQAPGKERELDAAISSGDGTNYADSVKGRFTISRDNEKNTVYLQMNSLKPEDTAVYYCNADGFVDWAWSEQYIPNIHLDYWGQGTQVTVSS	low polyreactivity
QVQLVESGGGLVQAGGSLRLSCAASGSTFTAYAMGWYRQAPGKERELVADISDSGGSTYYADSVKGRFTISRDNAKNTVYLQMNSLKPEDTAVYYCAAAWVFKKGFGTEMDYWGQGTQVTVSS	low polyreactivity
QVQLVESGGGLVQAGGSLRVSCAASGFTFSHYAMGWYRQAPGKERELVAAISWGGGSTYYADSVKGRFTISRDNAQNTVYLQMNSLKPEDTAVYYCAARYVLFSNRFDYWGQGTQVTVSS	high polyreactivity
QVQLVESGGGLVQAGGSLRLSCAASGGIFPQYSMGWYTQAPGKERELVSAISRRGGRTYYADSVKGRFTISRDTAKNTVYLQMNSLKPEDTAVYYCAKRALTYTRYRVIYDYWGQGTQVTVSS	high polyreactivity
QVQLVESGGGLVQAGGSLRLSCAASGITFPGNAMGWYRQAPGKERELVAVISFGDGGTYYADSVKGRFTISRDNAKNTVYLQMNSLKPEDTAVYYCATDYQSTSVWGGHFVINPYDYWGQGTQVTVSS	low polyreactivity
QVQLVESGGGLVQAGGSLRLSCAASGRIFKVYAMGWYRQAPGKERELVAAITSRGGSTYYADSVKGRFTISRDNAKNTVYLQMNSLKPEDTAVYYCAAARGLPSNKYYYWGQGTQVTVSS	high polyreactivity
QVQLVESGGGLVQAGGSLRLSCAASGSIFVGYAMGWYRQAPGKERELVAAINSSGDRTFYADSVKGRFTISRDNAKNTVYLQMNSLKREDTAVYYCNRVYVRAGVSVAYNYWGQGTQVTVSS	high polyreactivity
QVQLVESGGGLVQAGGSLRLSCAASGIIFRLNAMGWYRQAPGKERELGAAIRRRGGSTYYADSVKGRFTISRDNAKNTVYLQMNSLKPEDTAVYYCAADAPWAYYEYDYWGQGTQVTVSS	low polyreactivity
QVQLVESGGGLVQAGGSLRLSCAASGSIFSYYAMGWYRQAPGKERELVAAITRGGTTYYADSVKGRFTISRDNAKNTVYLQRNSLKPEDTAVYYCAASDYYGEYEYWGQGTQVTVSS	high polyreactivity
QVQLVESGGGLVQAGGSLRLSCAASGSTFTAYVMGWYRQAPGKERELVAAISRSGGRTYYADSVKGRFTISRDNAKNTVYLQMNSLKPEDTAVYYCAARSGPLAYDYWGQGTQVTVSS	high polyreactivity
QVQLVESGGGLVQAGGSLRLSCAASGLTFDYYAMGWYRQAPGKERELVAAIDWSGGSTYYADSVKGRFTISRDNAKNTVYLQMNSLKPEDSAVYYCATESDDSGMDYWGQGTQVTVSS	low polyreactivity
QVQLVESGGGLVQAGGSLRLSCAASGRTFLIYAMGWYRQAPGKERELVAAITNGVDSTYYADSVKGRFTISRDNAKNTVYLQMNSLKPEDTAVYYCNADTVVEWYSPSREYDYWGQGTQVTVSS	low polyreactivity
QVQLVESGGCLVQAGGSLRLSCAPSGFIFPYYAMGWYRPAPGQERALVAAITSSGGSTYYADSVKGRFTISRDNAKNTVYLQMNSLKPEETAVYYCNKYRRYVDGYEMDYWGQGTQVTVSS	high polyreactivity
QVQLVESGGGLVQAGGSLRLSCAASGSIFGDNAMGWYRQAPGKERELVAAITSSGGSTYYADSVKGRFTISRDNAKNSVYLQMNSLKPEDTAVYYCNADFGYGWYLRYDYWGLGTQVTVSS	high polyreactivity
QVQLVESGVGLVQAGGRLRLSCAASGSTFLRYAMGWYRPAPGKERELVAAISYSGGSTYYADSVKGRFTISRDNAKNTVYLQMNSLKPEDTAVYYCNAGVFANDNGGRRDQFTWEYEYWGQGTQVTVSS	low polyreactivity
QVQLVQSWPGLVQEGGSLRLSSAESGYTIRWYAMGCYRQAHGKERELVASITSGGNTNYADSVKGRFTISRDNAKNTVYLQMNRLKTEDTEVYYCAATRGYYRLDYWGQGTQVTVSS	high polyreactivity
QVQLQESGGGLVQAGGSLRLSCAASGTISTDSYMGWYRQAPGKERKFVATIGYGGITYYADSVKGRSTISRDSAKNTVYLQMNSLKPEDTAVYYCAVNSYYPDHYWYWGRGTQVTVSS	high polyreactivity
